The source of these data is patent US6375944B1, “Methods and compositions for enhancing the immunostimulatory effect of interleukin-12” (The Wistar Institute of Anatomy and Biology, priority 1998, dated 2002).

The test system of the assay is allogeneic DTH responses. The experiment in a line: Delayed type hypersensitivity (DTH) assessment, footpad swelling after alloimmunization with HKB cells. The class given is in vivo, mice. How it is done: A. C57BL/6 (H-2^b) mice were vaccinated with irradiated allogeneic HKB (H-2^a) cells suspended in PBS at 10^7 trypan blue-excluding cells/ml. Cells were irradiated with 6000 rads from a ^137Cs source, and mice were vaccinated with 10^6 cells s.c. (day 0). Mice were given rmIL-12 (Genetics Institute, Andover, Mass.) by intraperitoneal injection (ip) with 500 ng/day on days 0-4 and 7-11 (10 injections). Control mice received phosphate buffered saline (PBS) injections. The vaccinated mice received 1 mg of neutralizing anti-IFNγ (XMG6) and/or anti-TNFα (XT22) monoclonal antibodies (mAbs) on days −1, 3 and 7. Mice were subsequently assayed for delayed type hypersensitivity (DTH) and for mitogen and alloantigen stimulation of splenocytes as described below.
The DTH assessment was performed as follows: For assessment of allogeneic DTH responses, mice were injected with 50 μl PBS containing 10^6 irradiated SCK cells in the right footpad and with 50 μl PBS in the left footpad. Footpad thickness measurements were taken just before injection and 24 hours later using a Starrett pocket gauge (Athol, Mass.). Data are presented as the difference in footpad swelling induced by SCK cells and by PBS.
C57BL/6 mice genetically deficient for IFNγ (IFNγ^−/−) and wild-type C57BL/6 mice were vaccinated with 10^6 irradiated HKB cells and given 500 ng rmIL-12 or phosphate buffered saline (PBS) on days 0-4 and 7-11 or left unvaccinated. They were challenged with 10^6 irradiated SCK cells in the right foot, with PBS control injection in the left foot on day 12. The DTH responses were measured as described above in Part A.
C. To examine the role of TNFα, SV129×C57BL/6 mice deficient for both p55 and p75 TNF receptors (TNFR^−/− mice) and control mice were vaccinated with 10^6 irradiated HKB cells and given 500 ng IL-12 or PBS on days 0-4 and 7-11. DTH assessment was performed on day 12, as described above in Part A.
Footpad injections for DTH assessment were performed on day 12 as described above in the DTH assay. Swelling 24 hours later is presented as the mean (+S.E.) from 3 mice in each treatment group in FIG. 4A.

B1: rmIL-12: recombinant murine Interleukin-12, heterodimeric cytokine, from Genetics Institute (protein, UniProt P43431 23-215; P43432 23-335, looked up)
Interleukin-12 subunit alpha: RVIPVSGPARCLSQSRNLLKTTDDMVKTAREKLKHYSCTAEDIDHEDITRDQTSTLKTCLPLELHKNESCLATRETSSTTRGSCLPPQKTSLMMTLCLGSIYEDLKMYQTEFQAINAALQNHNHQQIILDKGMLVAIDELMQSLNHNGETLRQKPPVGEADPYRVKMKLCILLHAFSTRVVTINRVMGYLSSA
Interleukin-12 subunit beta: MWELEKDVYVVEVDWTPDAPGETVNLTCDTPEEDDITWTSDQRHGVIGSGKTLTITVKEFLDAGQYTCHKGGETLSHSHLLLHKKENGIWSTEILKNFKNKTFLKCEAPNYSGRFTCSWLVQRNMDLKFNIKSSSSSPDSRAVTCGMASLSAEKVTLDQRDYEKYSVSCQEDVTCPTAEETLPIELALEARQQNKYENYSTSFFIRDIIKPDPPKNLQMKPLKNSQVEVSWEYPDSWSTPHSYFSLKFFVRIQRKKEKMKETEEGCNQKGAFLVEKTSTEVQCKGGNVCVQAQDRYYNSSCSKWACVPCRVRS
On to B1, for which the DTH responses entry reads like this: (IFNγR1−/− C57BL/6×SV129 mice and controls vaccinated with HKB cells, data not shown) “suppressed DTH responses in control but not IFNγR1^−/− mice”; (IFNγ−/− C57BL/6 mice vaccinated with HKB cells, rmIL-12 500 ng days 0-4 and 7-11) “had no suppressive effect”; (TNFR−/− (p55 and p75) SV129×C57BL/6 mice vaccinated with HKB cells, 500 ng days 0-4 and 7-11) “depressed DTH responses like wild-type”; (iNOS−/− C57BL/6 mice vaccinated with HKB cells, course of rmIL-12) “at least as great as those of PBS-treated iNOS^−/− and wild-type mice”; (wild-type C57BL/6 mice vaccinated with irradiated HKB cells, rmIL-12 500 ng/day ip days 0-4 and 7-11, challenge day 12) “suppressed DTH responses to background levels”.
